Assay [1] deals with T1, leucyl-tRNA synthetase (LRS), endogenous in MEF cell lysate (UniProt Q8BMJ2 1-1178).
T1 construct: Endogenous protein immunoprecipitated from MEF cells
Put plainly: co-immunoprecipitation from MEF cell lysate, Western blot. As to the method:
Particularly, MEF cells stimulated by amino acids by the same manner as described in Example <1-1> were washed with cold PBS. At this time, MEF cells unstimulated with amino acids were used as the control. The cells were lysed in mild lysis buffer (MLB: 10 mM Tris (pH 7.5), 2 mM EDTA, 100 mM NaCl, […], 50 mM NaF, 1 mM Na₃VO₄ and protease inhibitor cocktail (Sigma)). On the other hand, for immunoprecipitation of LRS, the cells were lysed in MIPT buffer. Then, the lysate was microcentrifuged at 13,000×g for 10 minutes to collect supernatant. An antibody was added to the supernatant at 4° C., followed by immunoprecipitation. Reaction was induced in the presence of protein G-agarose or M2-beads (Sigma). The beads were washed with lysis buffer 3 to 5 times, followed by Western blotting according to the conventional method. Immunoprecipitation for Vps34 was performed with protein G-agarose beads, and immunoprecipitation for Flag-LRS was performed with M2-beads.

The target in assay [2] is T1, leucyl-tRNA synthetase (LRS), …. Kind of assay: immunoprecipitation with Atg14L antibody from MEF cell lysate, Western blot.

T1 sequence (Q8BMJ2 whole entry): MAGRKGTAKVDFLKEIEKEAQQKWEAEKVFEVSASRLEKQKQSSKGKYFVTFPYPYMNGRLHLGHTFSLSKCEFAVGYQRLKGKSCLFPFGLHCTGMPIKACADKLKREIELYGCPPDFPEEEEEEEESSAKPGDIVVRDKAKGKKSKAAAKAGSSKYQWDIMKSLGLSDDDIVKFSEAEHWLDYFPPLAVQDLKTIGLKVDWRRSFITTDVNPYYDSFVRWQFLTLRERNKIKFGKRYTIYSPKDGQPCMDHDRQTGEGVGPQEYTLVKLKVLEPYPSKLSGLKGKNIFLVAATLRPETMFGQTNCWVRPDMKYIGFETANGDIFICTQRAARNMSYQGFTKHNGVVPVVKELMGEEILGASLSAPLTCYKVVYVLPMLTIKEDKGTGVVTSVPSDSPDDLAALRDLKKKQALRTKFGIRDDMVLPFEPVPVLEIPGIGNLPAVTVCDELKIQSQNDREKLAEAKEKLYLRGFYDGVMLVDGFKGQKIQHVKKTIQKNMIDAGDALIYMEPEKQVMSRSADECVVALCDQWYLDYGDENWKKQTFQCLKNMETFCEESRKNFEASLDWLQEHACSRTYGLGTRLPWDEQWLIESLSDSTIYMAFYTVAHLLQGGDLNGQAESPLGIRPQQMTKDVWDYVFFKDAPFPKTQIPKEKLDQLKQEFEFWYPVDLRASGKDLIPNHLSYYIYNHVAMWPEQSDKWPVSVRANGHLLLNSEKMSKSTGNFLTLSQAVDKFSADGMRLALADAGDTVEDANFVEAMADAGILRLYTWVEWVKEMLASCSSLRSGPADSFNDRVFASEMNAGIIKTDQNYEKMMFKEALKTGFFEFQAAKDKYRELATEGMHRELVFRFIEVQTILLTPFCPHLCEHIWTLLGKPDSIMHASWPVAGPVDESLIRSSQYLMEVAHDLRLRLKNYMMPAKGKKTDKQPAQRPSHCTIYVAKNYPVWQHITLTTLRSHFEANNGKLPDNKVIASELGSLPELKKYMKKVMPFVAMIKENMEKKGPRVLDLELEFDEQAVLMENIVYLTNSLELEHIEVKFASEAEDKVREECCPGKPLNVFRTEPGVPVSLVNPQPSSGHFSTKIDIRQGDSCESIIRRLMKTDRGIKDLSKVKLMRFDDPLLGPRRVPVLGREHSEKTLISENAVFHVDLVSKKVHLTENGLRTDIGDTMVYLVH

B1: Vps34 (vacuolar protein sorting 34), endogenous in MEF cell lysate (enzyme, UniProt Q6PF93 1-887, looked up)
chain: MGEAEKFHYIYSCDLDINVQLKIGSLEGKREQKSYKAVLEDPMLKFSGLYQETCSDLYVTCQVFAEGKPLALPVRTSYKAFSTRWNWNEWLKLPVKYPDLPRNAQVALTIWDVYGPGSAVPVGGTTVSLFGKYGMFRQGMHDLKVWPNVEADGSEPTRTPGRTSSTLSEDQMSRLAKLTKAHRQGHMVKVDWLDRLTFREIEMINESEKRSSNFMYLMVEFRCVKCDDKEYGIVYYEKDGDESSPILTSFELVKVPDPQMSMENLVESKHHKLARSLRSGPSDHDLKPNATTRDQLNIIVSYPPTKQLTYEEQDLVWKFRYYLTNQEKALTKFLKCVNWDLPQEAKQALELLGKWKPMDVEDSLELLSSHYTNPTVRRYAVARLRQADDEDLLMYLLQLVQALKYENFDDIKNGLEPTKKDSQTSASESLSNSGVSSGDIDSSQIITNPLPPVASPPPASKAKEVSDGENLEQDLCTFLISRACKNSTLANYLYWYVIVECEDQDTQQRDPKTHEMYLNVMRRFSQALLKGDKSVRVMRSLLAAQQTFVDRLVHLMKAVQRESGNRKKKNERLQALLGDNEKMNLSDVELIPLPLEPQVKIRGIIPETATLFKSALMPAQLFFKTEDGGKYPVIFKHGDDLRQDQLILQIISLMDKLLRKENLDLKLTPYKVLATSTKHGFMQFIQSVPVAEVLDTEGSIQNFFRKYAPSETGPYGISAEVMDTYVKSCAGYCVITYILGVGDRHLDNLLLTKTGKLFHIDFGYILGRDPKPLPPPMKLNKEMVEGMGGTQSEQYQEFRKQCYTAFLHLRRYSNLILNLFSLMVDANIPDIALEPDKTVKKVQDKFRLDLSDEEAVHYMQSLIDESVHALFAAVVEQIHKFAQYWRK
notes: Endogenous protein from MEF cells; also called Vps34 immune complex
For B1, in assay [1], the binding result is recorded as “binds”.

B2: Atg14L, endogenous in MEF cell lysate (other, UniProt Q8CDJ3 1-492, looked up)
chain: MASPSGKGSWTPEAPGFGPRALARDLVDSVDDAEGLYVAVERCPLCNTTRRRLTCAKCVQSGDFVYFDGRDRERFIDKKERLSQLKNKQEEFQKEVLKAMEGKRLTDQLRWKIMSCKMRIEQLKQTICKGNEEMKKNSEGLLKNKEKNQKLYSRAQRHQEKKEKIQRHNRKLGDLVEKKTIDLKSHYERLARLRRSHILELTSIIFPIDEVKTSGRDPADVSSETDSAMTSSMVSKLAEARRTTYLSGRWVCDDHNGDTSISITGPWISLPNNGDYSAYYNWVEEKKTTQGPDMEHNNPAYTISAALGYATQLVNIVSHILDINLPKKLCNSEFCGENLSKQKLTRAVRKLNANILYLCSSQHVNLDQLQPLHTLRNLMHLVSPRSEHLGRSGPFEVRADLEESMEFVDPGVAGESDASGDERVSDEETDLGTDWENLPSPRFCDIPSQPVEVSQSQSTQVSPPIASSSAGGMISSAAASVTSWFKAYTGHR
notes: Endogenous protein; also called autophagic Vps34 complex
Turning to B2, the binding result in assay [2] is recorded as “no binding”.

Source of the values: patent US20200155655A1 (GACHON UNIVERSITY OF INDUSTRY ACADEMIC COOPERATION …, published 2020).
